Measurements: publication PMC3432753

Target: Recombinant human endostatin (human) (UniProt P39060)
Assay: SPR

Chain of UniProt P39060 (P39060 1572-1754): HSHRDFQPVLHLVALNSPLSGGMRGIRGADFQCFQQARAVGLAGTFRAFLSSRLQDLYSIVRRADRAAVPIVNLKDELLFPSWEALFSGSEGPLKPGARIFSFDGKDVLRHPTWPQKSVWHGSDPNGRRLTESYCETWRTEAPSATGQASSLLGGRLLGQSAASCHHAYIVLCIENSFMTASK

Kd: 9 nM
Substance: α3β1 integrin (Millipore) (from UniProt P26006 33-1051; P05556 21-728) (complex)
